These results are taken from publication PMC9896932, “Apo and ligand-bound high resolution Cryo-EM structures of the human Kv3.1 channel reveal a novel binding site for positive modulators” (PNAS Nexus, 2022).

The series concerns the molecule itself. The series can be described thus: cryo-EM structure; purified flWT-Kv3.1a in LMNG 0.01%, Tris 20 mM pH 7.5, KCl 200 mM, DTT 1 mM; 2 mg/ml on the grid; apo (2.65 Å) and with 500 µM Lu AG00563 (3.0 Å), same organisation of subunits in both.

B1: wild type full length human Kv3.1 isoform a tetramer (natural protein, UniProt P48547 1-511, looked up)
chain: MGQGDESERIVINVGGTRHQTYRSTLRTLPGTRLAWLAEPDAHSHFDYDPRADEFFFDRHPGVFAHILNYYRTGKLHCPADVCGPLYEEELAFWGIDETDVEPCCWMTYRQHRDAEEALDSFGGAPLDNSADDADADGPGDSGDGEDELEMTKRLALSDSPDGRPGGFWRRWQPRIWALFEDPYSSRYARYVAFASLFFILVSITTFCLETHERFNPIVNKTEIENVRNGTQVRYYREAETEAFLTYIEGVCVVWFTFEFLMRVIFCPNKVEFIKNSLNIIDFVAILPFYLEVGLSGLSSKAAKDVLGFLRVVRFVRILRIFKLTRHFVGLRVLGHTLRASTNEFLLLIIFLALGVLIFATMIYYAERIGAQPNDPSASEHTHFKNIPIGFWWAVVTMTTLGYGDMYPQTWSGMLVGALCALAGVLTIAMPVPVIVNNFGMYYSLAMAKQKLPKKKKKHIPRPPQLGSPNYCKSVVNSPHHSTQSDTCPLAQEEILEINRAGRKPLRGMSI
notes: Kv3.1 (KCNC1), human, canonical isoform a, wild type, full length; C-terminal prescission 3C site followed by GFP, removed by HRV 3C protease on elution from the resin; The GFP tag was still on the protein when it was captured on the anti-GFP resin (co-purification statement); In the model residues 120-191, 218-239, 268-280, 295-311 and 372-376 were not built; also called flWT-Kv3.1a; Kv3.1a; …
As to B1, the “stoichiometry N” value was 4.
